Usually Kd stands for the free concentration of one partner at which half of the binding sites on the other are occupied at equilibrium, for simple one-to-one binding. By koff is commonly meant a measure of how fast the partners let go of each other. The term kon denotes a measure of how fast the partners come together. Low readings indicate slower complex formation, high ones faster complex formation.

Data on 15 molecules can be found in publication PMC3499403 (PLoS Neglected Tropical Diseases, 2012).

Test [1] addresses T1, soluble form of the Variant-specific Surface Glycoprotein (sVSG) of T. b. brucei AnTat1.1 (Trypanosoma brucei brucei AnTat1.1, UniProt P06015).
T1 construct: Variant-specific Surface Glycoprotein (VSG) of Trypanosoma brucei brucei AnTat1.1, soluble form (sVSG); Glycoprotein; amine-coupled to a CM5 chip for SPR; also called AnTat1.1 sVSG; soluble AnTat1.1 VSG
As to the kind of experiment: SPR; BIAcore T100; 1000-1500 RU soluble AnTat1.1 VSG amine-coupled on a CM5 chip; Nanobody 500 to 7.8 nM at 30 µl/min in HBS (10 mM Hepes pH 7.5, 150 mM NaCl, 3.5 mM EDTA, 0.005% Tween-20); 1:1 binding model with local Rmax. To be noted: both partners purified. In general terms: SPR reads the build-up and loss of mass on a sensor chip optically.

Test [2] concerns the target T2, Variant-specific Surface Glycoprotein (VSG) on live bloodstream form T. b. brucei AnTat1.1 (Trypanosoma brucei brucei AnTat1.1, UniProt P06015). Kind of test: cell-based or functional assay.
In test [3] the target is T2, Variant-specific Surface Glycoprotein …. Kind of test: cell-based or functional assay. The source holds these as a separate data set.
Test [4] deals with T1, soluble form of the Variant-specific …. As to the kind of experiment: SPR; BIAcore T100; 1000-1500 RU soluble AnTat1.1 VSG amine-coupled on a CM5 chip; Nanobody 500 to 7.8 nM at 30 µl/min in HBS (10 mM Hepes pH 7.5, 150 mM NaCl, 3.5 mM EDTA, 0.005% Tween-20); 1:1 binding model with local Rmax. To be noted: both partners purified. This is another data set of the same source.
For test [5] the target is unchanged. The test is described as above. To be noted: both partners purified. This is another data set of the same source.
The target in test [6] is T3, Variant-specific Surface Glycoprotein (VSG) on live bloodstream form T. b. brucei AnTat1.1 (Trypanosoma brucei brucei AnTat1.1 (endogenous in the parasites)) (UniProt P06015).
T3 sequence: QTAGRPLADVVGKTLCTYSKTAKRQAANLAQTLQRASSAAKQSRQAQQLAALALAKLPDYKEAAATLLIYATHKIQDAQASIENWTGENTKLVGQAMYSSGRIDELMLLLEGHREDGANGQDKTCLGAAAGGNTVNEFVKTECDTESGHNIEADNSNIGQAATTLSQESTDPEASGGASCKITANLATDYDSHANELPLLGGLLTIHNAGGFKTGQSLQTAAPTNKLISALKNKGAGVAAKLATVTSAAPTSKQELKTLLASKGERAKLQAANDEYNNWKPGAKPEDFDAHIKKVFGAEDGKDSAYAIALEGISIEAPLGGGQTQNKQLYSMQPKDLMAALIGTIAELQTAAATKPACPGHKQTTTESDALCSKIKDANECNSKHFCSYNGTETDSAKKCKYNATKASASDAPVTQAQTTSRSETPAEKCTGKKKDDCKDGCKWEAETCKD

The target of test [7] is T2, Variant-specific Surface Glycoprotein …. Kind of test: cell-based or functional assay. This is another data set of the same source.

Where only a bound is given, the exact number is not on record here.

B1: Nb_An-R4.11 (VHH)
VHH: QVQLQESGGGLVQPGGSLRLSCEGSGFILGYYTIGWFRQAPGKEREGVSCMNSSGRTKYADSVKGRFTISRDNAKNTVYLQMNSLKPEDRAVYFCAADLINLCDSSWLRDGMNYWGKGTQVTVSS
notes: From the alpaca sVSG-immune library, cloned in pMES; source: E. coli WK6, purified (Ni-NTA, Superdex 75 gel filtration)
The molecule B1 yielded a Kd in test [1] of 35 nM. The “trypanotoxic activity (% relative to a non-trypanosome specific Nb), 10 µg/ml Nb, 18 h, 37°C, HMI-9/10% FBS” value in test [2] is over 80%.

B2: Nb_An-R3.68 (VHH)
VHH: QVQLQESGGGLVQPGGSLRLSCAASGGTLSYYAVGWFRQAPGKEREAVSSIRSGGGITVYADSVKGRFTISRDNKKNTVYLQMNGLKPEDTAVYYCAAGLWRWPDHNMLVSGNYDYWGQGTQVTVSS
notes: as for B1
With B2, the “trypanotoxic activity (% relative to a non-trypanosome specific Nb), 10 and 20 µg/ml Nb, 18 h, 37°C; value at 20 µg/ml” value in test [3] was over 95%. The results for the Kd in test [1] and in test [4] were 12 nM and 9 nM, respectively.

B3: Nb_An-R4.71 (VHH)
VHH: QVQLQESGGGLVQPGGSLRLSCAASGFILNYATIAWFRQAPGKEREGVSCISSAFNTNYADSVKGRFAISRDNAKNTVYLQMNSLKPEDTAVYYCAATFGGTSYCSLRPDSSVPYDTWGQGTQVTVSS
notes: as for B1
In the case of B3, in test [1], the Kd stood at 7 nM. For the same molecule, the “trypanotoxic activity (% relative to a non-trypanosome specific Nb), 10 µg/ml Nb, 18 h, 37°C, HMI-9/10% FBS” value in test [2] is over 80%.

B4: Nb_An33hum1 (VHH)
VHH: DVQLVESGGGSVQAGGSLRLSCAVSGSTYSPCTTGWVRQAPGKEREWVSSISSPGTIYYQDSVKGRFTISRDNAKNTVYLQMNSLQREDTGMYYCQIQCGVRSIREYWGQGTQVTVSS
In test [5], B4 gave a Kd of 1100 nM, an off-rate (koff) of 0.264 s⁻¹ and a kon of 243000 M⁻¹ s⁻¹. The Trypanotoxic activity (%), 18 h incubation at 37°C with 20 µg/ml Nb in test [6] was found to be 0%.

B5: Nb_An33mut3 (VHH)
VHH: DVQLVESGGGSVQAGGSLRLSCAVSGSTYSPCTTGWYRQAPGKEREWVSSISSPGTIYYQDSVKGRFTISRDNAKNTVYLQMNSLQREDTGMYYCQIQCGNDCILEYWGQGTQVTVSS
notes: Conjugated with Alexa Fluor 488 for flow cytometry; source: E. coli WK6, purified (Ni-NTA, Superdex 75 gel filtration)
On to B5, for which the “Trypanotoxic activity (%), 18 h incubation at 37°C with 20 µg/ml Nb” value (shortened to “Trypanotoxic activity (%)”) in test [7] was found to be 24%. Besides, in test [5], binding was put at a Kd of 197 nM, the off-rate (koff) turned out to be 0.066 s⁻¹ and the kon was 336000 M⁻¹ s⁻¹.

B6: Nb_An33hum2 (VHH)
VHH: DVQLVESGGGSVQAGGSLRLSCAVSGSTYSPCTTGWVRQAPGKGLEWVSSISSPGTIYYQDSVKGRFTISRDNAKNTVYLQMNSLQREDTGMYYCQIQCGVRSIREYWGQGTQVTVSS
Consider B6, for which, in test [5], the dissociation constant Kd is 540 nM, the off-rate (koff) amounted to 0.15 s⁻¹ and the kon is 291000 M⁻¹ s⁻¹. This molecule showed a Trypanotoxic activity (%), 18 h incubation at 37°C with 20 µg/ml Nb in test [6] of 0%.

B7: Nb_An33mut2 (VHH)
VHH: DVQLVESGGGSVQAGGSLRLSCAVSGSTYSPCTTGWYRQAPGKEREWVSSISSPGTIYYQDSVKGRFTISRDNAKNTVYLQMNSLQREDTGMYYCQIQCGFVNINEYWGQGTQVTVSS
notes: as for B5
Regarding B7, the “Trypanotoxic activity (%)” value in test [7] amounted to 4%. In addition, in test [5], the Kd came to 723 nM, the dissociation rate constant (koff) worked out at 0.227 s⁻¹ and the kon worked out at 314000 M⁻¹ s⁻¹.

B8: Nb_An33hum3 (VHH)
VHH: DVQLVESGGGSVQAGGSLRLSCAVSGSTYSPCTTGWYRQAPGKGLEWVSSISSPGTIYYQDSVKGRFTISRDNAKNTVYLQMNSLQREDTGMYYCQIQCGVRSIREYWGQGTQVTVSS
In test [5], B8 returned a Kd of 23.5 nM, a koff of 0.016 s⁻¹ and a kon of 702000 M⁻¹ s⁻¹. This molecule returned a Trypanotoxic activity (%), 18 h incubation at 37°C with 20 µg/ml Nb in test [6] of 57%.

B9: Nb_An33mut1 (VHH)
VHH: DVQLVESGGGSVQAGGSLRLSCAVSGRALSPCTTGWYRQAPGKEREWVSSISSPGTIYYQDSVKGRFTISRDNAKNTVYLQMNSLQREDTGMYYCQIQCGVRSIREYWGQGTQVTVSS
notes: as for B5
Consider B9, for which the “Trypanotoxic activity (%)” value in test [7] stood at 33%. In test [5], this molecule gave a Kd of 89 nM, an off-rate constant (koff) of 0.042 s⁻¹ and a kon of 467000 M⁻¹ s⁻¹.

B10: Nanobody 33 (Nb_An33), wildtype (VHH)
VHH: DVQLVESGGGSVQAGGSLRLSCAVSGSTYSPCTTGWYRQAPGKEREWVSSISSPGTIYYQDSVKGRFTISRDNAKNTVYLQMNSLQREDTGMYYCQIQCGVRSIREYWGQGTQVTVSS
In test [5], B10 yielded a dissociation constant Kd of 28 nM, a koff of 0.021 s⁻¹ and an on-rate constant (kon) of 741000 M⁻¹ s⁻¹. The same molecule had a Trypanotoxic activity (%), 18 h incubation at 37°C with 20 µg/ml Nb in test [6] of 73%.

B11: Nb_An-R3.7 (VHH)
VHH: QVQLQESGGGLVQPGGSLRLSCEASGFILGYYTIGWIRQAPGKEREGVICITSAGGRTNYADSVKGRFTISRDNAKNTVYLQMNSLKPEDTAVYYCAADLINLCDSSWLRDGMNYWGKGTQVTVSS
notes: as for B1
B11 had a Kd in test [1] of 5 nM. The “trypanotoxic activity (% relative to a non-trypanosome specific Nb), 10 µg/ml Nb, 18 h, 37°C, HMI-9/10% FBS” value in test [2] was over 80%.

B12: Nb_An-R4.80 (VHH)
VHH: QVQLQESGGGLVQPGGSLRLSCEASGFILGYYTIGWIRQAPGKEREGVICITSAGGRTNYADSVKGRFTISRDNAKNTVYLQMNSLKPEDTAVYYCAADLTNLCDSSWLRDGMNYWGKGTQVTVSS
notes: as for B1
B12 registered a dissociation constant (Kd) in test [1] of 6 nM. Also, the “trypanotoxic activity (% relative to a non-trypanosome specific Nb), 10 µg/ml Nb, 18 h, 37°C, HMI-9/10% FBS” value in test [2] is over 80%.

B13: Nb_An-R4.29 (VHH)
VHH: QVQLQESGGGLVQPGGSLRLSCEASGFILGYYTIGWFRQAPGKEREGVSCINSSPGTTNYADSVKGRFTISRDNAKNTVYLQMNSLKPEDTAVYYCAADLINLCDSTWVRDGMNFWGKGTQVTVSS
notes: as for B1
The molecule B13 had a Kd in test [1] of 5 nM. In addition, in test [2], the “trypanotoxic activity (% relative to a non-trypanosome specific Nb), 10 µg/ml Nb, 18 h, 37°C, HMI-9/10% FBS” value is over 80%.

B14: Nb_An-R3.92 (VHH)
VHH: QVQLQESGGGLVQAGGSLRLSCEASGFILGYYTIGWFRQAPGKEREGVLCISSAGGRTNYADSVKGRFTISRDNAKNTVYLQMNSLKPEDTAVYYCAADLINLCDSSWWRDGMNYWGKGTQVTVSS
notes: as for B1
Regarding B14, in test [1], binding was put at a Kd of 11 nM. Further, the “trypanotoxic activity (% relative to a non-trypanosome specific Nb), 10 µg/ml Nb, 18 h, 37°C, HMI-9/10% FBS” value in test [2] was over 80%.

B15: Nb_An-R4.55 (VHH)
VHH: QVQLQESGGGLVQPGGSLRLSCEASGFILGYYTIGWIRQAPGKEREGVICITSAGGRTNYADSVKGRFTISRDNAKNTVYLQMNSLKPEDTAVYYCAADLINLCDSSWLQDGMNYWGKGTQVTVSS
notes: as for B1
For B15, binding in test [1] was put at a Kd of 5 nM. The “trypanotoxic activity (% relative to a non-trypanosome specific Nb), 10 µg/ml Nb, 18 h, 37°C, HMI-9/10% FBS” value in test [2] was over 80%.
